# In the supplement of paper PMC10567573:
# B1: SNX8 (parent)
# chain: LHQETQLIHVYLPLTSHILRAFVN
# B2: MMP1 (parent)
# chain: FHGTRQYKFDPKTKRILTLQKANS
# Variants of: B1
# Assay: protein stability index of a GFP-peptide fusion (GPS, HEK-293T) (PSI 1-6); higher = more stable
# Settings: c terminus: a fixed tail appended
# 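Further: lentivirally expressed fusions sorted by FACS into six bins by GFP to DsRed ratio, PSI derived from sequencing read proportions per bin multiplied by bin number.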
row,Variant,protein stability index
1,LHQEMQLIHVYLPLTSHILRAFVN,2.39
2,LHQEHQLIHVYLPLTSHILRAFVN,2.17
3,LHQEAQLIHVYLPLTSHILRAFVN,2.03
4,LHQELQLIHVYLPLTSHILRAFVN,3.03
5,LHQENQLIHVYLPLTSHILRAFVN,3.51
6,LHQECQLIHVYLPLTSHILRAFVN,3.39
7,LHQEPQLIHVYLPLTSHILRAFVN,1.66
8,LHQEFQLIHVYLPLTSHILRAFVN,2.83
9,LHQEIQLIHVYLPLTSHILRAFVN,3.8
10,LHQEGQLIHVYLPLTSHILRAFVN,2.26
11,LHQEWQLIHVYLPLTSHILRAFVN,2.22
12,LHQEYQLIHVYLPLTSHILRAFVN,1.85
13,LHQEEQLIHVYLPLTSHILRAFVN,1.98
14,LHQEDQLIHVYLPLTSHILRAFVN,1.78
15,LHQERQLIHVYLPLTSHILRAFVN,2.75
16,LHQEVQLIHVYLPLTSHILRAFVN,4.08
17,LHQPTQLIHVYLPLTSHILRAFVN,2.18
18,LHQTTQLIHVYLPLTSHILRAFVN,1.4
19,LHQLTQLIHVYLPLTSHILRAFVN,2.8
20,LHQATQLIHVYLPLTSHILRAFVN,1.83
21,LHQWTQLIHVYLPLTSHILRAFVN,1.8
22,LHQFTQLIHVYLPLTSHILRAFVN,2.34
23,LHQKTQLIHVYLPLTSHILRAFVN,4.66
24,LHQQTQLIHVYLPLTSHILRAFVN,3.2

row,Variant,protein stability index
1,LHQRTQLIHVYLPLTSHILRAFVN,2.25
2,LHQGTQLIHVYLPLTSHILRAFVN,2.64
3,LHQNTQLIHVYLPLTSHILRAFVN,3.07
4,LHQVTQLIHVYLPLTSHILRAFVN,3.22
5,LHQCTQLIHVYLPLTSHILRAFVN,1.83
6,LHQMTQLIHVYLPLTSHILRAFVN,2.04
7,LHQYTQLIHVYLPLTSHILRAFVN,2.38
8,LHQITQLIHVYLPLTSHILRAFVN,2.46
9,LHQHTQLIHVYLPLTSHILRAFVN,1.82
10,LHQETQMIHVYLPLTSHILRAFVN,2.9
11,LHQETQSIHVYLPLTSHILRAFVN,2.37
12,LHQETQRIHVYLPLTSHILRAFVN,4
13,LHQETQTIHVYLPLTSHILRAFVN,3.64
14,LHQETQEIHVYLPLTSHILRAFVN,1.87
15,LHQETQYIHVYLPLTSHILRAFVN,1.91
16,LHQETQQIHVYLPLTSHILRAFVN,2.71
17,LHQETQCIHVYLPLTSHILRAFVN,2.44
18,LHQETQNIHVYLPLTSHILRAFVN,2.1
19,LHQETQAIHVYLPLTSHILRAFVN,2.53
20,LHQETQIIHVYLPLTSHILRAFVN,2.73
21,LHQETQKIHVYLPLTSHILRAFVN,2.32
22,LHQETQDIHVYLPLTSHILRAFVN,2.17
23,LHQETQGIHVYLPLTSHILRAFVN,2.15
24,LHQETQPIHVYLPLTSHILRAFVN,3.31

row,Variant,protein stability index
1,LHQETQHIHVYLPLTSHILRAFVN,1.98
2,LHQETQLMHVYLPLTSHILRAFVN,3.01
3,LHQETQLDHVYLPLTSHILRAFVN,2.22
4,LHQETQLLHVYLPLTSHILRAFVN,1.67
5,LHQETQLEHVYLPLTSHILRAFVN,2.44
6,LHQETQLWHVYLPLTSHILRAFVN,2.6
7,LHQETQLYHVYLPLTSHILRAFVN,4.04
8,LHQETQLGHVYLPLTSHILRAFVN,1.42
9,LHQETQLVHVYLPLTSHILRAFVN,1.45
10,LHQETQLRHVYLPLTSHILRAFVN,1.78
11,LHQETQLKHVYLPLTSHILRAFVN,2.3
12,LHQETQLTHVYLPLTSHILRAFVN,2.1
13,LHQETQLQHVYLPLTSHILRAFVN,1.68
14,LHQETQLNHVYLPLTSHILRAFVN,2.09
15,LHQETQLPHVYLPLTSHILRAFVN,1.65
16,LHQETQLSHVYLPLTSHILRAFVN,2.03
17,LHQETQLCHVYLPLTSHILRAFVN,2.87
18,LHQETQLFHVYLPLTSHILRAFVN,2.5
19,LHQETQLAHVYLPLTSHILRAFVN,2.03
20,LHLETQLIHVYLPLTSHILRAFVN,2.24
21,LHIETQLIHVYLPLTSHILRAFVN,3.42
22,LHVETQLIHVYLPLTSHILRAFVN,2.47
23,LHDETQLIHVYLPLTSHILRAFVN,2.8
24,LHPETQLIHVYLPLTSHILRAFVN,2.31

row,Variant,protein stability index
1,LHYETQLIHVYLPLTSHILRAFVN,3.12
2,LHRETQLIHVYLPLTSHILRAFVN,2.48
3,LHKETQLIHVYLPLTSHILRAFVN,4.06
4,LHEETQLIHVYLPLTSHILRAFVN,2.55
5,LHHETQLIHVYLPLTSHILRAFVN,2.62
6,LHMETQLIHVYLPLTSHILRAFVN,2.15
7,LHAETQLIHVYLPLTSHILRAFVN,3.04
8,LHWETQLIHVYLPLTSHILRAFVN,2.73
9,LHCETQLIHVYLPLTSHILRAFVN,2.06
10,LHGETQLIHVYLPLTSHILRAFVN,2.67
11,LHSETQLIHVYLPLTSHILRAFVN,3.32
12,LHFETQLIHVYLPLTSHILRAFVN,3.79
13,LHNETQLIHVYLPLTSHILRAFVN,2.96
14,LHQETQLIKVYLPLTSHILRAFVN,1.43
15,LHQETQLICVYLPLTSHILRAFVN,3.65
16,LHQETQLIPVYLPLTSHILRAFVN,2.22
17,LHQETQLIGVYLPLTSHILRAFVN,3.08
18,LHQETQLIAVYLPLTSHILRAFVN,2.16
19,LHQETQLILVYLPLTSHILRAFVN,3.18
20,LHQETQLIMVYLPLTSHILRAFVN,2.9
21,LHQETQLINVYLPLTSHILRAFVN,2.43
22,LHQETQLIIVYLPLTSHILRAFVN,2.82
23,LHQETQLISVYLPLTSHILRAFVN,2.4
24,LHQETQLIEVYLPLTSHILRAFVN,1.65

row,Variant,protein stability index
1,LHQETQLITVYLPLTSHILRAFVN,2.96
2,LPQETQLIHVYLPLTSHILRAFVN,2.04
3,LNQETQLIHVYLPLTSHILRAFVN,2.5
4,LYQETQLIHVYLPLTSHILRAFVN,2.96
5,LLQETQLIHVYLPLTSHILRAFVN,1.83
6,LVQETQLIHVYLPLTSHILRAFVN,2.6
7,LWQETQLIHVYLPLTSHILRAFVN,3.21
8,LGQETQLIHVYLPLTSHILRAFVN,2.72
9,LTQETQLIHVYLPLTSHILRAFVN,1.68
10,LRQETQLIHVYLPLTSHILRAFVN,1.82
11,LQQETQLIHVYLPLTSHILRAFVN,2.5
12,LFQETQLIHVYLPLTSHILRAFVN,2.04
13,LSQETQLIHVYLPLTSHILRAFVN,2.03
14,LDQETQLIHVYLPLTSHILRAFVN,3.62
15,FHQETQLIHVYLPLTSHILRAFVN,3.82
16,KHQETQLIHVYLPLTSHILRAFVN,3.1
17,QHQETQLIHVYLPLTSHILRAFVN,2.18
18,VHQETQLIHVYLPLTSHILRAFVN,2.64
19,IHQETQLIHVYLPLTSHILRAFVN,2.88
20,EHQETQLIHVYLPLTSHILRAFVN,3.18
21,PHQETQLIHVYLPLTSHILRAFVN,3.01
22,NHQETQLIHVYLPLTSHILRAFVN,2.75
23,THQETQLIHVYLPLTSHILRAFVN,3.62
24,AHQETQLIHVYLPLTSHILRAFVN,2.75

row,Variant,protein stability index
1,HHQETQLIHVYLPLTSHILRAFVN,1.85
2,DHQETQLIHVYLPLTSHILRAFVN,3.07
3,RHQETQLIHVYLPLTSHILRAFVN,2.06
4,LHQETRLIHVYLPLTSHILRAFVN,3.29
5,LHQETCLIHVYLPLTSHILRAFVN,2.63
6,LHQETPLIHVYLPLTSHILRAFVN,2.41
7,LHQETVLIHVYLPLTSHILRAFVN,3.73
8,LHQETILIHVYLPLTSHILRAFVN,2.75
9,LHQETSLIHVYLPLTSHILRAFVN,2.04
10,LHQETELIHVYLPLTSHILRAFVN,2.88
11,LHQETGLIHVYLPLTSHILRAFVN,2.55
12,LHQETFLIHVYLPLTSHILRAFVN,2.33
13,LHQETNLIHVYLPLTSHILRAFVN,1.6
14,LHQETKLIHVYLPLTSHILRAFVN,1.7
15,LHQETMLIHVYLPLTSHILRAFVN,2.2
16,LHQETDLIHVYLPLTSHILRAFVN,2.01
17,LHQETHLIHVYLPLTSHILRAFVN,2.75
18,LHQETLLIHVYLPLTSHILRAFVN,3.52
19,LHQETWLIHVYLPLTSHILRAFVN,3.31

# Variants of: B2
# Assay: as above
# Settings: c terminus: a fixed tail appended
row,Variant,protein stability index
1,FHGTRQYKFDPKTKRILTLQKARS,2.38
2,FHGTRQYKFDPKTKRILTLQKAQS,1.85
3,FHGTRQYKFDPKTKRILTLQKATS,1.29
4,FHGTRQYKFDPKTKRILTLQKAIS,2.87
5,FHGTRQYKFDPKTKRILTLQKALS,2.08
6,FHGTRQYKFDPKTKRILTLQKASS,1.93
7,FHGTRQYKFDPKTKRILTLQKAKS,3.21
8,FHGTRQYKFDPKTKRILTLQKAWS,1.51
9,FHGTRQYKFDPKTKRILTLQKAMS,1.8
10,FHGTRQYKFDPKTKRILTLQKAVS,2.08
11,FHGTRQYKFDPKTKRILTLQKAYS,2.1
12,FHGTRQYKFDPKTKRILTLQKACS,2.32
13,FHGTRQYKFDPKTKRILTLQKAHS,1.88
14,FHGTRQYKFDPKTKRILTLQKAES,1.91
15,FHGTRQYKFDPKTKRILTLQKAPS,1.67
16,FHGTRQYKFDPKTKRILTLQKADS,2.46
17,FHGTRQYKFDPKTKRILTLQKAFS,1.25
18,FHGTRQYKFDPKTKRILTLQKAGS,1.39
19,FHGTRQYKFDPKTKRILTLQKAAS,1.37
20,FHGTRQYKFDPKTKRILTLQKQNS,2.06
21,FHGTRQYKFDPKTKRILTLQKVNS,1.45
22,FHGTRQYKFDPKTKRILTLQKMNS,1.83
23,FHGTRQYKFDPKTKRILTLQKLNS,1.52
24,FHGTRQYKFDPKTKRILTLQKTNS,1.68
25,FHGTRQYKFDPKTKRILTLQKPNS,2.19

row,Variant,protein stability index
1,FHGTRQYKFDPKTKRILTLQKKNS,1.99
2,FHGTRQYKFDPKTKRILTLQKNNS,2.09
3,FHGTRQYKFDPKTKRILTLQKRNS,1.65
4,FHGTRQYKFDPKTKRILTLQKYNS,2.49
5,FHGTRQYKFDPKTKRILTLQKWNS,1.6
6,FHGTRQYKFDPKTKRILTLQKSNS,2.51
7,FHGTRQYKFDPKTKRILTLQKANT,1.65
8,FHGTRQYKFDPKTKRILTLQKANE,1.79
9,FHGTRQYKFDPKTKRILTLQKANP,2.08
10,FHGTRQYKFDPKTKRILTLQKANN,2.16
11,FHGTRQYKFDPKTKRILTLQKANK,1.84
12,FHGTRQYKFDPKTKRILTLQKANY,1.67
13,FHGTRQYKFDPKTKRILTLQKANA,1.6
14,FHGTRQYKFDPKTKRILTLQKANL,1.76
15,FHGTRQYKFDPKTKRILTLQKANQ,2.07
16,FHGTRQYKFDPKTKRILTLQKANH,2.58
17,FHGTRQYKFDPKTKRILTLQKANR,1.3
18,FHGTRQYKFDPKTKRILTLQKAND,1.77
19,FHGTRQYKFDPKTKRILTLQKANC,2.01
20,FHGTRQYKFDPKTKRILTLQKANV,1.79
21,FHGTRQYKFDPKTKRILTLQKANI,2.09
22,FHGTRQYKFDPKTKRILTLQKANF,1.59
23,FHGTRQYKFDPKTKRILTLQKANG,2.03
24,FHGTRQYKFDPKTKRILTLQKANM,1.85
